What was measured:
UAF1 = UAF1 (UniProt Q8TAF3); experiment: FLAG co-immunoprecipitation, western blot; conditions: reference: wild type; sites S306
[1] = target: UAF1 (USP1-associated factor 1), purified recombinant (UniProt Q8TAF3 1-677); experiment: pull-down
Chain of UAF1 (USP1-associated factor 1), purified recombinant (Q8TAF3 whole entry): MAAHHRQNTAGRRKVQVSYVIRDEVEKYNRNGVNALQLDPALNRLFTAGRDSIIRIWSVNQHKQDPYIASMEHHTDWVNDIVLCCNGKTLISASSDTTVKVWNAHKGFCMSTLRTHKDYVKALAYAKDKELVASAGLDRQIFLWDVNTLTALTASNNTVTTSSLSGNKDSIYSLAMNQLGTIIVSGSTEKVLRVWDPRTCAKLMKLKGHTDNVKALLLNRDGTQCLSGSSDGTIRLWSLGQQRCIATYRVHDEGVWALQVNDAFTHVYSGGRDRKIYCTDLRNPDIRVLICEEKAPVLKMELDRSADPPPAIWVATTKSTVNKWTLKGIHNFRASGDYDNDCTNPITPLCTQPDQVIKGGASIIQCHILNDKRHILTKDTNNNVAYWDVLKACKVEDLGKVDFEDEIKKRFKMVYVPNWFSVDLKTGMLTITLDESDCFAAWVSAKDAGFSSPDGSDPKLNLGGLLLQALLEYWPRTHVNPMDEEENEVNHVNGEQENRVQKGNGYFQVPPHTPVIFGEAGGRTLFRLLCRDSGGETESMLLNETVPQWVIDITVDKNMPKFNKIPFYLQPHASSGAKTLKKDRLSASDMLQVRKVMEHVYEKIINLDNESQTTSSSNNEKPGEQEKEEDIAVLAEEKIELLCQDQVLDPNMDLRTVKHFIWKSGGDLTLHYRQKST

Row | binding against the reference (UAF1) | binding result [1] | Molecule
1 | weaker |  | ATAD5 (from UniProt Q96QE3) S306A
2 |  | binds | ATAD5 (1 to 500, S306E), the 'wild-type' ATAD5 (1 to 500) of the in vitro binding studies (domain or fragment, human, UniProt Q96QE3 1-500, looked up) MVGVLAMAAAAAPPPVKDCEIEPCKKRKKDDDTSTCKTITKYLSPLGKTRDRVFAPPKPSNILDYFRKTSPTNEKTQLGKECKIKSPESVPVDSNKDCTTPLEMFSNVEFKKKRKRVNLSHQLNNIKTENEAPIEISSDDSKEDYSLNNDFVESSTSVLRYKKQVEVLAENIQDTKSQPNTMTSLQNSKKVNPKQGTTKNDFKKLRKRKCRDVVDLSESLPLAEELNLLKKDGKDTKQMENTTSHANSRDNVTEAAQLNDSIITVSYEEFLKSHKENKVEEIPDSTMSICVPSETVDEIVKSGYIEESENSEISQQVRFKTVTVLAQVHPIPPKKTGKIPRIFLKQKQFEMENSLSDPENEQTVQKRKSNVVIQEEELELAVLEAGSSEAVKPKCTLEERQQFMKAFRQPASDALKNGVKKSSDKQKDLNEKCLYEVGRDDNSKKIMENSGIQMVSKNGNLQLHTDKGSFLKEKNKKLKKKNKKTLDTGAIPGKNREGNT

From PMC11348035 (Proceedings of the National Academy of Sciences of the …, 2024)
